The target in assay [1] is T1, Human MTR4 (SKIV2L2, DOB1) (human, UniProt P42285 1-1042).
T1 sequence: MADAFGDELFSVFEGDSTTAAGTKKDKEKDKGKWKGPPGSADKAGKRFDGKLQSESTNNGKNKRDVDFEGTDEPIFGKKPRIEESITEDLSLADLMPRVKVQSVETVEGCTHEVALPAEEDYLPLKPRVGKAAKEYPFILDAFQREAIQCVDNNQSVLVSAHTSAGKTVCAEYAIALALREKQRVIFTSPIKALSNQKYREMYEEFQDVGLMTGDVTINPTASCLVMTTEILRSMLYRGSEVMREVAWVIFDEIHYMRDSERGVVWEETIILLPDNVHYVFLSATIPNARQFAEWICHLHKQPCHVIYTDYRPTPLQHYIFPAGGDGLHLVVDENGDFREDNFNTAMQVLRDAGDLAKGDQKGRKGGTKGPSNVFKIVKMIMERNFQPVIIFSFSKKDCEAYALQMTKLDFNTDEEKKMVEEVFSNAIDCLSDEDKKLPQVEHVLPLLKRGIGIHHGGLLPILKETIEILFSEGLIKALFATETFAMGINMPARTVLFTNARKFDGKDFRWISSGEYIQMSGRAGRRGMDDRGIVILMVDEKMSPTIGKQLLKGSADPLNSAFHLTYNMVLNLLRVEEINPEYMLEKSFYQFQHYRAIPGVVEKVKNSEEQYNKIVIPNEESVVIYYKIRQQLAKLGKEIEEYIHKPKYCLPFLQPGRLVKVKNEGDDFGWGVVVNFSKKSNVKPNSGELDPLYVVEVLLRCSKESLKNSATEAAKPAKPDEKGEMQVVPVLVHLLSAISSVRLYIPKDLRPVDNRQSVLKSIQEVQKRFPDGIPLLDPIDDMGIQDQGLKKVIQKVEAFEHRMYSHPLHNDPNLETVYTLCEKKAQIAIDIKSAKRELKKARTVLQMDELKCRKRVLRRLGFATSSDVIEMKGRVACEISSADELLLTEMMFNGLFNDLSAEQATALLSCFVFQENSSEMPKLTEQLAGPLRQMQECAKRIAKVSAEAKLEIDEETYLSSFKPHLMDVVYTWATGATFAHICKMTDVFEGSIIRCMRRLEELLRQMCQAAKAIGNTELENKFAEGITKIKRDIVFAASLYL
The experiment in a line: cryo-EM structure.

The next assay deals with EXOSC3 (human, UniProt Q9NQT5 1-275). Briefly: cryo-EM structure.
Sequence of EXOSC3 (Q9NQT5 whole entry): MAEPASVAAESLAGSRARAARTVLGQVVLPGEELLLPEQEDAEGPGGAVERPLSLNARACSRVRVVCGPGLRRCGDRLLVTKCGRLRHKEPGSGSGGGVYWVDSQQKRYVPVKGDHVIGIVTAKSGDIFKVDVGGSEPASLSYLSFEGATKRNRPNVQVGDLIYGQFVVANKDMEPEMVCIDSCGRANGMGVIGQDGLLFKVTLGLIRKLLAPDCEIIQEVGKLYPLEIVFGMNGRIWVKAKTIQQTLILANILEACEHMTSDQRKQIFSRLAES

B1: Human M-Phase-Phosphoprotein 6 (MPP6) (natural protein)
chain: MAAERKTRLSKNLLRMKFMQRGLDSETKKQLEEEEKKIISEEHWYLDLPELKEKESFIIEEQSFLLCEDLLYGRMSFRGFNPEVEKLMLQMNAKHKAEEVEDETVELDVSDEEMARRYETLVGTIGKKFARKRDHANYEEDENGDITPIKAKKMFLKPQD
With B1, the binding result (in assay [1]; in the assay with EXOSC3) was “binds” throughout.

(Values after PMC6124691 (Cell, 2018).)
